Molecular target: IRΔβ (human insulin receptor ectodomain construct, (αβ)2 homodimer) (human) (UniProt P06213)
Test: crystal structure

stoichiometry N: 2
Substance: IRΔβ (human insulin receptor ectodomain construct, (αβ)2 homodimer) (from UniProt P06213-2 28-1370)
